Measurements from patent US20260234247A1 (published 2026).
Where a chain is given by its changes, count along the chain named.

B1: 12D12 (antibody, human IgG4 S228P, kappa, V domains shown)
VH: QVQLQQPGAELVKPGASVRMSCKASGYTFTSYWVHWVKQRPGQGLEWIGVIDPSDSYTSYNQNFKGKATLTVDTSSKTAYIHLSSLTSEDSAVYFCARGERYDGDYFAMDYWGQGTSVTVSS
VL: DIVMTQSPASLSVSVGETVTITCRASENIYSNLAWYQQKQGKSPQLLVYAATNLADGVPSRFSGSRSGTQYSLKINSLQSEDFGTYYCQHFWNTPRTFGGGTKLEIKR
B2: LK-RB2-7 (antibody, human IgG4 S228P, kappa, V domains shown)
VH: DVKLVESGEGLVKPGGSLKLSCAASGFTFSSYAMSWVRQTPEMRLEWVAYISSGGDHFYYADTVKGRFTISRDNARSTLYLQMSSLKSEDTAMYYCTREGASYDSNFLAWFAYWGQGTLVTVSA
VL: DIQMTQSPASLSVSVGETVTITCRASENIYSNLAWYQQKEGKSPQLLVYGATNLADGVPSRFSGSGSGTQYSLKINSLQSEDFGSYYCQNFWDIPLTFGAGTKLELKR
B3: LK-RB2-9 (antibody, human IgG4 S228P, kappa, V domains shown)
VH: DVQLQESGPGLVKPSQSLSLTCSVTGYSITSGYYWNWIRQFPGNKLEWMGYIGYDGNNNYNPSLKNRISITRDTSKNQFFLKLNSLTTEDTATYYCAREGSTMVTSWFAYWGQGTLVTVSA
VL: B2 VL with E40Q, S65R, G68D, N90H, I94T, L96Y, A100G, L106I
B4: LK-RB2-18 (antibody, human IgG4 S228P, kappa, V domains shown)
VH: EVQLQQSGPELVKPGTSVKISCKASGYTFTDYYMNWVKQSHGKSLEWIGDINPNNGGTSYNQKFKGKATLTVDKSSSTAYMELRSLTSEDSAVFYCARSGTTVVGTYWYFDVWGTGTTVTVSS
VL: B2 VL with E40Q, N90H, I94T, L96F, A100S, L106I
B5: LK-RB2-20 (antibody, human IgG4 S228P, kappa, V domains shown)
VH: QVQLKQPGAERVKPGASVKMSCKASGYTFTRYWITWVKQRPGQGLEWIGDIYPGSATTNYNEKFKSKATLTEDTSSSTAYMQLSSLTSEDSAVYYCARSGDYSNSNYAMDYWGQGTSVTVSS
VL: NIEMTQSPKSMSMAVGERVTLSCKASENVGTYVSWYQQKPEQSPKLLIYGASNRNTGVPDRFTGSGSATDFTLTISSVQAEDLADYHCGQSYSYPFTFGSGTKLEIKR
B6: LK-RB2-47 (antibody, human IgG4 S228P, kappa, V domains shown)
VH: QVQLKQSGPGLVQPSQSLSITCTVSGFSLISYGVHWVRQSPGKGLEWLGVIWSGGSTDYNAAFISRLSISKDNSKSQVFFKMNSLQADDTAIYYCARSFHYHGSTFDYWGQGTTLTVSS
VL: DIQMTQTTSSLSASLGDRVIISCRASQDINNYLNWYQQKPDGTVKLLIYFTSRLHSGVPSSFSGSGSGTDYSLTINNLEQEDIATYFCQQVNTLPYTFGGGTKLEIKR
B7: LK-RB2-39 (antibody, human IgG4 S228P, kappa, V domains shown)
VH: DVKLVESGGGSVQPGGSLKLSCAASGFTFSDYYMYWVRQTPEKRLEWVAYISNGGGNTYYPDTVKGRFTISRDNAKNTLYLQMSRLKSEDTAMYYCARSNWAWYFDVWGTGTTVTVSS
VL: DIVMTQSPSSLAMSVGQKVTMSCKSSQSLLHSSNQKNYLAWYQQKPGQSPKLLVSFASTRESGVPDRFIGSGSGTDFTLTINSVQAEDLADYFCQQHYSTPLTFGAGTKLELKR
B8: LK-RB2-31 (antibody, human IgG4 S228P, kappa, V domains shown)
VH: QVQLQQPGAELVKPGASMKLSCKASGYTFTTYYMYWVKQRPGLGLEWIGGINPSNGGTTFNEKFKNKATLTVDKSSSTAYMQLRSLTSEDSAVYYCTRWRFFDVWGAGTTVTVSS
VL: SIVMTQTPEFLLVSAGDRVTITCKASQSVNNDVAWFQQKPGQSPKLLIYYASNRYTGVPDRFTGSGYGTDFTFTISTVQAEDLAIYFCQQDYSSPPTFGGATKLEIKR
B9: LK-RB2-27 (antibody, human IgG4 S228P, kappa, V domains shown)
VH: DVKLVESGGGLVKPGGSLKLSCAASGFTFSSYSMSWVRQTPEKRLEWVATISTGGSYTYYPDSVKGRFTISRDNAKNTLYLQMSSLKSEDTAMFYCTRGSMDYWGQGTSVTVSS
VL: DILMTQSPSSMSVSLGDTVSITCHASQDISSNIGWLQQKPGNSFKGLIYHGTNLEDGVPSRFSGSGSGADYSLTISSLESEDFADYYCVQYAQFPYTFGGGTKLEIKR
B10: LK-RB2-28 (antibody, human IgG4 S228P, kappa, V domains shown)
VH: B9 VH with V64M
VL: B9 VL with T22A
B11: LK-RB2-34 (antibody, human IgG4 S228P, kappa, V domains shown)
VH: B9 VH with L4V, G55S, P61S
VL: B9 VL with T52I
B12: LK-RB2-46 (antibody, human IgG4 S228P, kappa, V domains shown)
VH: QVQMQQSDAELVKPGASVKISCKVSGYTFTDQIIHWMKQRPEQGLEWIGYIYPRDDSIMYNEKFKGKATLTADKSSSTANMQLNSLTSEDSAVYFCAYDAYWYFDVWGTGTTVIVSS
VL: DIVMTQSHKFMSASVGDRVSITCKASQDVNTAVAWYRQDPGQSPKLLIYWASTRHTGVPDRFTGSGSGTDYTLTINNFQAEDLALYYCQQHYSPPLTFGAGTKLELKR
B13: LK-RB2-10 (antibody, human IgG4 S228P, kappa, V domains shown)
VH: EVMLVESGGDLVKPGGSLKLSCAASGFTFSANTVSWLRRTPERRLEWVATISGGSDNTYCPDSVKGRFTISRDNARDTLYLQMSSLTSEDTALYFCARHYYDGPNWYFDVWGPGTTVTVSS
VL: DIVMTQSQKFMSSTGGDRVTITCKASQNVDTAVAWYQQKPGQSPKLLIYSASNRYIGVPDRFKGSGSGTDFSLTITNIQSEDLAEYFCQQYSSYPLTFGAGTKLELKR
B14: LK-RB2-6 (antibody, human IgG4 S228P, kappa, V domains shown)
VH: QIQLVQSGPELKKPGETVKISCKASGYTFTTYGMSWVKQAPGKGLEWMGWINIYSGVPTYADDFKGRFAFSLETSASTAYLQINNLKNEDTATYFCARRGDYDSFYFDYWGQGTTLTVSS
VL: DIVMSQSPSSLAVSVGEKVTVSCKSSQSLLYSYNQKNYLAWYQQKPGQSPKLLIYWSSTRESGVPDRFTGSGSGTDFTLTISSVKAEDLAVYYCQQCYNYPYTFGGGTKLEIKR
B15: LK-RB2-13 (antibody, human IgG4 S228P, kappa, V domains shown)
VH: QIQLVQSGPELKKPGETVKISCKASGYTFTTYGMSWVKQAPGKGLQWMGWINTYSGVPTFADDFKGRFAFSLDTSASTAYLQINNLKNEDTATYFCARRINWDGYAMDYWGQGTSVTVSS
VL: B14 VL with I2S, V21M, Y33G, N37S, S57A, C97Y, N99S
B16: LK-RB2-17 (antibody, human IgG4 S228P, kappa, V domains shown)
VH: B15 VH with T31N, K65R, N85S, T93A
VL: B14 VL with I2S, V21L, Y33G, N37S, S57A, T59S, C97Y, N99S, Y100F
B17: LK-RB2-11 (antibody, human IgG4 S228P, kappa, V domains shown)
VH: QIQLVQSGPELKKPGETVKISCKASGYSFITYGMSWVKQAPGKGLKWMGWINTYSGEPTYGDDFMGRFAFSLETSASTAYLQINNLKNEDTASYFCARYHYDDGMDYWGQGTSVTVSS
VL: DIKMTQSPSSMYASLGERVTITCKASQDINNYLSWFQQKPGKSPKTLIFRANRLVDGVPSRFSGSGSGQDYSLTISSLEDEDMGIYYCLQYDEFPWMFGGGTKLEIER
B18: p1E1 (antibody, human IgG4 S228P, kappa, V domains shown)
VH: EVQLQQWGAGLLKPSETLSLTCAVYGGSFSGYYWSWIRQPPGKGLEWIGEINHSGSTNYNPSLKSRVTISVDTSKNQFSLKLSSVTAADTAVYYCARLPTRWVTTRYFDLWGRGTLVTVSS
VL: ESVLTQPPSVSGAPGQRVTISCTGSSSNIGAGYDVHWYQQLPGTAPKLLIYGNSNRPSGVPDRFSVSKSGASASLAITGLQAEDEADYYCQSFDNSLSAYVFGGGTQLTVLG
B19: LK-RB2-25 (antibody, human IgG4 S228P, kappa, V domains shown)
VH: QVQLKESGPGLVAPSQSLSITCTVSGFSLTSYGVHWVRQPPGKGLEWLGVIWAGGSTKYNSALMSRLSINKDNSKSQVFLKMNSLQTDDTAMYYCARDQMVRSAMDYWGQGTSVTVSS
VL: DIQMIQSPSSMFASLGDRVSLSCRASQGIRGNLDWYQQKPGGTIKLLIYSTSNLNSAVPSRFSGSGSGSDYSLTISNLESEDFADYYCLQRNASPYTFGGGTKLEIKR
B20: LK-RB2-43 (antibody, human IgG4 S228P, kappa, V domains shown)
VH: EVQLVESGGDLVKPGGSLKLSCAASGFTFSSYGMSWVRQTPDKRLEWVATISGGGTYTYYPDSVKGRFTISRDNAKNTLYLQMSSLKSEDTAMYYCASGAMDYWGQGTSVTVSS
VL: QIVLTQSPAILSASPGEKVTMTCSANSSVSSMYKYQQKPGSSPKPWIYGTSNLASGVPARFSGSGSGTSYSLTISSMEAADAATYYCQQYHSHPLTFGAGTKLELKR
B21: LK-RB2-44 (antibody, human IgG4 S228P, kappa, V domains shown)
VH: B20 VH
VL: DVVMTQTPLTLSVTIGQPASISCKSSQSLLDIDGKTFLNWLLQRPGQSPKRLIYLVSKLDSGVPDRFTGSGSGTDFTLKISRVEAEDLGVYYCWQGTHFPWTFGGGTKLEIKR
B22: LK-RB2-32 (antibody, human IgG4 S228P, kappa, V domains shown)
VH: DVQLQESGPGLVKPSQSLSLTCSVTGYSITSGYYWNWIRQFPGNKLEWMGYISFDGSNHYNPSLRNRISITRDTFKNQFFLKLNSVTTEDTATFYCTRRDYNWFAYWGQGTLVTVSA
VL: DIVLTQSPVTLSVTPGDSVSLSCRASQNINKNLHWYQQRSHESPRLLIKYVSQSISGIPSRFSGSGSGTDFTLSINSVETEDFGMYFCQQSNSWPLTFGAGTKLELRR

Target: T1, human LILRB1 (human, UniProt Q8NHL6 24-458, limits assumed)
T1 construct: also called hLILRB1
Test: Octet off-rate ranking;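 note: antibody dissociation rate constants against cynomolgus LILRB2 plus human LILRB1, LILRB2, LILRA1 and LILRA2, measured on an Octet instrument to rank binding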
Source text: Binding affinity of anti-LILRB1 and anti-LILRB2 antibodies against human LILRB1, LILRB2, LILRA1, LILRA2 and cynomolgus LILRB2 was ranked by measuring dissociation rate constant (Kdis) using the Octet system.

T1 sequence (Q8NHL6 24-458 limits assumed): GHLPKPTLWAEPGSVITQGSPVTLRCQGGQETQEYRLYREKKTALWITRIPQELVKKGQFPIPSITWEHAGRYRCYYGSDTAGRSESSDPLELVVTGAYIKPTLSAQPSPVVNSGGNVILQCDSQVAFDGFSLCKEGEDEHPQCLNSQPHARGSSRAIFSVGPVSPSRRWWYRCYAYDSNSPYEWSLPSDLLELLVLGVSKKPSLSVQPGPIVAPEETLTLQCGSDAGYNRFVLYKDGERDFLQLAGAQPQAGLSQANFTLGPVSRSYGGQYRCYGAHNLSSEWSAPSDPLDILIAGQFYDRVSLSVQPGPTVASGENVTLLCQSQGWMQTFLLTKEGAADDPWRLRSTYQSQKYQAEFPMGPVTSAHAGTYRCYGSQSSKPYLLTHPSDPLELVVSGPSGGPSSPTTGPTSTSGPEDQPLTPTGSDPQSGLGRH

Row | koff [s⁻¹] | Binder
1 | 0.000338 | B1

Target: T2, human LILRB2 expressed on CHOK1 cells (CHOK1-hLILRB2) (human, UniProt Q8N423 22-597)
T2 construct: whole, on cells; also called CHOK1-LILRB2
Test: FACS binding to CHOK1-hLILRB2 cells

T2 sequence (Q8N423 22-597): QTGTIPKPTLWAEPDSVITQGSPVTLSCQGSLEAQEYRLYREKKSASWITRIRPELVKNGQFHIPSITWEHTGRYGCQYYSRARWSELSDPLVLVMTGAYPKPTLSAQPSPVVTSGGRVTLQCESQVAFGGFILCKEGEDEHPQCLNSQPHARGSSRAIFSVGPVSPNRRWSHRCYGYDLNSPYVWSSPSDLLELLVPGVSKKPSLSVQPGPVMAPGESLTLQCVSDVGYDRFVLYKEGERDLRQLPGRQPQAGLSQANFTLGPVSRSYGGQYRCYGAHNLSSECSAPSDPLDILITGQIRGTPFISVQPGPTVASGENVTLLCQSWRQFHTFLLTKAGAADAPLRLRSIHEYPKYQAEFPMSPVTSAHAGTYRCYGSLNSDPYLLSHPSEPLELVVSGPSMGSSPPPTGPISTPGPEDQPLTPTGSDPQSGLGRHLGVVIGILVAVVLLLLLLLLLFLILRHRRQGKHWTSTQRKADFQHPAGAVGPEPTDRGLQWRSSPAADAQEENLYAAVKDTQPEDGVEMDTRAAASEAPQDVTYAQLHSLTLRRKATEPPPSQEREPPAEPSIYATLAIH

Row | EC50 [nM] | binding result | Binder
2 | 0.25 | – | B2
3 | 0.17 | – | B3
4 | 0.14 | – | B4
5 | 0.14 | – | B5
6 | – | no binding | B6
7 | 36.6 | – | B7
8 | – | no binding | B8
9 | – | no binding | B9
10 | – | no binding | B10
11 | – | no binding | B11
12 | 0.35 | – | B12
13 | 0.27 | – | B13
14 | 0.66 | – | B14
15 | 0.23 | – | B15
16 | 0.16 | – | B16
17 | 0.27 | – | B17
18 | 0.64 | – | B18
19 | – | no binding | B19
20 | – | no binding | B20
21 | – | no binding | B21

Target: T3, human LILRB1 expressed on CHOK1 cells (CHOK1-hLILRB1) (human, UniProt Q8NHL6 24-650)
T3 construct: whole, on cells; also called CHOK1-LILRB1
Test: FACS binding to CHOK1-hLILRB1 cells

T3 sequence (Q8NHL6 24-650): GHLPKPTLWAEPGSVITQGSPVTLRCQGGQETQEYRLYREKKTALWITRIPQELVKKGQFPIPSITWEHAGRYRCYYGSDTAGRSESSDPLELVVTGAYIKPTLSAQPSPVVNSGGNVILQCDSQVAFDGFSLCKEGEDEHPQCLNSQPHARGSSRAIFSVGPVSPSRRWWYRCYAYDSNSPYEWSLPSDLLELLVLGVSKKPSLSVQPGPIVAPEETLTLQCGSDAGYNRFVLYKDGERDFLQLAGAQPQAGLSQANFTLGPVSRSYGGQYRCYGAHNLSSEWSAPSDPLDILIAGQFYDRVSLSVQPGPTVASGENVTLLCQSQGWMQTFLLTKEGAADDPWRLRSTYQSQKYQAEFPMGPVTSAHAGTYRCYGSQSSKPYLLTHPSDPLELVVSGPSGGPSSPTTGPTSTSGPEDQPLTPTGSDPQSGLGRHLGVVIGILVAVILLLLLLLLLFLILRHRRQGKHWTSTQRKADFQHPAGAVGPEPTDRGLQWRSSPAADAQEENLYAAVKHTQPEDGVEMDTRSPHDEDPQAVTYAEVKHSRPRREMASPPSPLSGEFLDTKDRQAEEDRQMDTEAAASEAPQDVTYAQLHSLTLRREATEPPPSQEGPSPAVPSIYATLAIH

Row | binding result | EC50 [nM] | Binder
22 | no binding | – | B2
23 | no binding | – | B3
24 | no binding | – | B4
25 | no binding | – | B5
26 | no binding | – | B6
27 | no binding | – | B7
28 | – | 1.99 | B8
29 | – | 4.54 | B22
30 | no binding | – | B9
31 | no binding | – | B10
32 | no binding | – | B11
33 | no binding | – | B12
34 | no binding | – | B13
35 | no binding | – | B14
36 | no binding | – | B15
37 | no binding | – | B16
38 | no binding | – | B17
39 | no binding | – | B18
40 | – | 1.71 | B19
41 | no binding | – | B20
42 | no binding | – | B21
